From US20210302435A1 (SEATTLE CHILDREN S HOSPITAL D B A SEATTLE CHILDREN S …, published 2021)

T1: IDUA 218 signature peptide (IDUA 218-230)
T1 construct: Endogenous tryptic peptide from digested DBS, PBMC or buccal swab samples; An internal standard version of the same peptide (1.25 fmol) was captured alongside it; also called first IDUA signature peptide
T1 peptide: LGGPGDSFHTPPR

T2: IDUA 462 signature peptide (IDUA 462-474)
T2 construct: Endogenous tryptic peptide from digested DBS, PBMC or buccal swab samples; An internal standard version of the same peptide (1.25 fmol) was captured alongside it; also called second IDUA signature peptide
T2 peptide: GVPPGPGLVYVTR


Experiments:
[1] = target: T1, IDUA 218 signature peptide (IDUA …); assay: immuno-SRM, mAb on Protein G magnetic beads, peptide capture from PBMC digest
[2] = target: T2, IDUA 462 signature peptide (IDUA …); assay: as above

Binder | binding result [1] | binding result [2]
anti-IDUA 218 monoclonal antibody (antibody, V domains shown, Used as a monoclonal antibody coated on Protein G magnetic beads (1 ug per assay)) VH: QVQLQQPGTELVKPGASVKLSCKASGYTFTRYWMHWVKQRPGQGLEWIGEINPSNGGTNYNEKFKNKATLNVDKSSSTAYMQLSSLTSEDSAVYYCTLAMDYWGQGTSVTVSS VL: not shown | binds | 
anti-IDUA 462 monoclonal antibody (antibody, V domains shown, Used as a monoclonal antibody coated on Protein G magnetic beads (4 ug per assay)) VH: EVQLQQSGAELVKPGASVKLSCTASGFNIKDTYMHWVNQRPEQGLEWIGRIDPANGNTKYGPKFQGKATITADTSSNTAYLQLSSLTSEDTAVYYCAQTARAPFAYWGQGTLVTVSA VL: DIVITQDEVSNPVTSGESVSISCRSSKSLLYKDGKTYLNWFLQRPGQSPQLLVYWMSTRASGVSDRFSGSGSGTDFTLKISRVKAEDVGMYYCQQVVEYPFTFGTGTKLEIK |  | binds
